We go through 1 substance from US20200385482A1.

In assay [1] the target is human C-type lectin domain family 2 member (hCLEC2D) expressed on transfected 300.19 cells (human) (UniProt Q9UHP7). Briefly: FACS, hCLEC2D 300.19 cells, assay 2, Ab 1 ug/ml.
For assay [2] the target is unchanged. The assay can be described thus: FACS, hCLEC2D 300.19 cells, assay 1, Ab approx 10 ug/ml. Background: Flow cytometry measures light scatter and fluorescence of single cells or particles in a stream.
For assay [3] the target is unchanged. The assay can be described thus: FACS, hCLEC2D 300.19 cells, assay 1, Ab 0.01 ug/ml.
Assay [4] shares this target. The assay can be described thus: FACS, hCLEC2D 300.19 cells, assay 1, Ab 1 ug/ml.
Assay [5] shares this target. The assay can be described thus: FACS, hCLEC2D 300.19 cells, assay 2, Ab 0.1 ug/ml.
The target is the same in assay [6]. The assay can be described thus: FACS, hCLEC2D 300.19 cells, assay 2, Ab approx 10 ug/ml.
The target is the same in assay [7]. The assay can be described thus: FACS, hCLEC2D 300.19 cells, assay 2, Ab 0.01 ug/ml.
The target is the same in assay [8]. Briefly: FACS, hCLEC2D 300.19 cells, assay 1, Ab 0.1 ug/ml.

Chain of human C-type lectin domain family 2 member (hCLEC2D) expressed on transfected 300.19 cells (human) (Q9UHP7 whole entry, the tested form may be a part): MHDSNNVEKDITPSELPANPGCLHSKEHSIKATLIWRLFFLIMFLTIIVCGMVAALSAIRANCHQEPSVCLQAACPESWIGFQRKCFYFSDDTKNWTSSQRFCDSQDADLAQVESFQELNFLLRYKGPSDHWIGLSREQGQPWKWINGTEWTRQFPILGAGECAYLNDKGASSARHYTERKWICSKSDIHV

As to control hIgG (antibody), the Cells PE-A Mean came out at 351 MFI in assay [1]; 1540 MFI in assay [2]; 146 MFI in assay [3]; 351 MFI in assay [4]; 175 MFI in assay [5]; 1540 MFI in assay [6]. Also, the Cells PE-A Mean was 146 MFI in assay [7] and 175 MFI in assay [8].
